The values that follow come from the supplement of paper PMC9732359.

This series can be described thus: protein stability index of a GFP-peptide fusion (yeast GPS) (PSI 1-4); higher = more stable; sorted into four equal gates, so the index is relative within each strain. The essentials:
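For each peptide, the protein stability index sums the read frequency in every gate after multiplying it by the gate number. Read frequencies came from plasmids that were PCR-amplified from each gate and Illumina-sequenced, with reads assigned to strains by barcodes. The gates were four equal bins of GFP/Cherry fluorescence ratio applied to mid-log yeast in leucine-free medium carrying a pooled library of tiled 17-residue yeast protein peptides fused downstream of GFP on a Cherry-expressing plasmid.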

± gives the uncertainty stated by the source.

Turning to ETIQADLNHVTEELQTQ [SMC2], the protein stability index worked out at 3.21 ± 0.14 (doa10∆), 3.21 ± 0.06 (pdr5∆), 3.02 ± 0.066 (san1∆) and 3.01 ± 0.1 (ubr1∆).
Consider TRIKLLLTKNVSCYRPR [RPS6A], for which the protein stability index reads like this: (doa10∆) 2.11 ± 0.22; (pdr5∆) 2.64 ± 0.14; (san1∆) 2.88 ± 0.11; (ubr1∆) 2.94 ± 0.17.
In the same order, the values of MLQKKLVEVEDEKIEAI [SRB7] are 3 ± 0.11, 3.37 ± 0.1, 3.16 ± 0.082 and 3.39 ± 0.086.
Take FFTIDHFIQKLHTARKI [SIR2]: the protein stability index is 1.75 ± 0.09 (doa10∆), 1.71 ± 0.1 (pdr5∆), 1.11 ± 0.12 (san1∆) and 1.37 ± 0.12 (ubr1∆).
For DPRHIQLLGDVMTYKGE [RPO31] the same measures were 2.91 ± 0.07, 3.17 ± 0.055, 2.79 ± 0.063 and 3.06 ± 0.048.
For EKIFHYGHVFLGITGLA [PUP3] the same measures were 1.17 ± 0.086, 1.34 ± 0.094, 1.15 ± 0.18 and 1.05 ± 0.074.
As to DEEMAVLTRMDEDRSKK [SNF2], the protein stability index by setting is: (doa10∆) 3.17 ± 0.071; (pdr5∆) 2.66 ± 0.083; (san1∆) 2.42 ± 0.092; (ubr1∆) 2.57 ± 0.072.
For SLLEKDIDAVNGAVGKR [ISW2] the same measures were 2.92 ± 0.09, 3.24 ± 0.081, 2.9 ± 0.098 and 3.31 ± 0.064.
As for FPRNGKAPEAEQVLSAA [RPL13A], the protein stability index worked out at 3.14 ± 0.098 (doa10∆), 2.76 ± 0.093 (pdr5∆), 3.13 ± 0.1 (san1∆) and 2.77 ± 0.05 (ubr1∆).
In the same order, the values of KNTIDFERFPSPSTSAN [RPN4] are 2.87 ± 0.09, 2.95 ± 0.064, 2.72 ± 0.082 and 3.03 ± 0.056.
For VTSMEAAREKKIRELEA [YIL149C/MLP2] the same measures were 2.97 ± 0.072, 2.9 ± 0.1, 2.92 ± 0.07 and 2.86 ± 0.063.
In the same order, the values of KIFQTTPEKDLFIGLFT [YCS4] are 2.1 ± 0.088, 1.84 ± 0.055, 2.41 ± 0.11 and 2.58 ± 0.066.
AASWYGSFNEMKRNCGQ [RMP1]: the protein stability index by setting is: (doa10∆) 2.92 ± 0.051; (pdr5∆) 3.3 ± 0.054; (san1∆) 3.06 ± 0.052; (ubr1∆) 3.21 ± 0.045.
Consider KPLGPCDVFWVQKDTAI [POP1], for which the protein stability index amounted to 2.85 ± 0.07 (doa10∆), 3.03 ± 0.069 (pdr5∆), 2.89 ± 0.06 (san1∆) and 2.96 ± 0.054 (ubr1∆).
In the same order, the values of NNNQKIDDNYIVVVIEI [SRB8] are 3.16 ± 0.078, 3.01 ± 0.065, 3.29 ± 0.083 and 3.11 ± 0.1.
Take SLRTPIAPKITPKVVRS [SEC65]: the protein stability index turned out to be 3.16 ± 0.093 (doa10∆), 3.05 ± 0.063 (pdr5∆), 2.87 ± 0.1 (san1∆) and 3.17 ± 0.059 (ubr1∆).
As for AAIRQPTRYVLIRNVGT [POP1], the protein stability index is, setting by setting: (doa10∆) 1.64 ± 0.073; (pdr5∆) 2.07 ± 0.083; (san1∆) 1.77 ± 0.11; (ubr1∆) 1.31 ± 0.053.
Regarding EAAAAEEGEEEEVKEEV [RPS0B], the protein stability index by setting is: (doa10∆) 3.24 ± 0.13; (pdr5∆) 3.48 ± 0.049; (san1∆) 3.19 ± 0.069; (ubr1∆) 3.37 ± 0.11.
For SSIQESLLSLVGHLSIL [ECM29] the same measures were 2.01 ± 0.045, 1.75 ± 0.043, 1.83 ± 0.053 and 1.6 ± 0.025.
In the same order, the values of AKPDNLANFSNEVAMNN [SWP82] are 3.22 ± 0.082, 3.21 ± 0.078, 3.13 ± 0.052 and 3.23 ± 0.067.
In the same order, the values of RGVTKVGFGESNFTSII [SMC1] are 3.56 ± 0.19, 3.33 ± 0.11, 3.09 ± 0.15 and 3.08 ± 0.08.
In the case of DYSINSRYEPKVFDCGD [PRE7], the protein stability index runs as follows: (doa10∆) 2.73 ± 0.076; (pdr5∆) 2.59 ± 0.053; (san1∆) 2.9 ± 0.068; (ubr1∆) 2.59 ± 0.063.
In the same order, the values of SQFNGSGNGSNPNTNTN [PGD1] are 2.48 ± 0.072, 2.68 ± 0.068, 2.84 ± 0.076 and 2.89 ± 0.034.
For SRGIVIGSGAMSPLECR [RPP1] the same measures were 1.69 ± 0.031, 2.34 ± 0.048, 2.12 ± 0.069 and 2.44 ± 0.036.
Sequence YNIDANVIDTQRKNGVT [ECM29] showed a protein stability index (doa10∆) of 2.75 ± 0.25, a protein stability index (pdr5∆) of 3.14 ± 0.092 and a protein stability index (san1∆) of 3.26 ± 0.12.
With KSIDSKTPEEVEVYAKI [ISW2], the protein stability index (doa10∆) was determined as 1.88 ± 0.078, the protein stability index (san1∆) stood at 2.88 ± 0.14 and the protein stability index (ubr1∆) is 3.01 ± 0.12.
